Measured values reported in the supplement of paper PMC6755084.

System: F1*sub RNA substrate (template-directed ligation)
Assay: fraction ligated after 30 min (ligated reads / total reads); higher = more ligase activity; sequences stand for … in GAGACCGCAACTGAAAAGTTGT…AGTTCTGCACGTAGAAGCAAAAGGC
Settings: 42 °C
Outline: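 Templates from an oligo pool were PCR-amplified, transcribed with T7 and gel-purified to give the ribozyme variants. Ligated and unligated products were separated on gel, reverse transcribed using barcoded primers, and read on a MiSeq. A quality filter of ≥20 was applied to core bases. Fraction ligated was taken as ligated reads as a share of all reads per variant.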

Sequence	fraction ligated
TATCACTTGTCGTAAACATTTGGAGGGTTGA [3d2077]	0.0367
TATCACTTGTCGTAAACATTTGGATGGGTTA [3d2079]	0.822
TATCACTTGTCGTAAACATTTGGATGGGTTG [3d2080]	0.826
TATCACTTGTCGTAAACATTTGGATGGGTTGA [2d236]	0.83
TATCACTTGTCGTAAACATTTGGATGGTTGA [3d2078]	0.15
TATCACTTGTCGTAAACATTTGGTGGGTTGA [3d2076]	0.0521
TATCACTTGTCGTAAACCTTGGATGGGTTGA [3d2067]	0.783
TATCACTTGTCGTAAACCTTTGATGGGTTGA [3d2068]	0.672
TATCACTTGTCGTAAACCTTTGGAGGGTTGA [3d2070]	0.15
TATCACTTGTCGTAAACCTTTGGATGGGTTA [3d2072]	0.746
TATCACTTGTCGTAAACCTTTGGATGGGTTG [3d2073]	0.793
TATCACTTGTCGTAAACCTTTGGATGGGTTGA [2d235]	0.785
TATCACTTGTCGTAAACCTTTGGATGGTTGA [3d2071]	0.256
TATCACTTGTCGTAAACCTTTGGTGGGTTGA [3d2069]	0.182
TATCACTTGTCGTAAACTTTGGATGGGTTGA [3d1993]	0.804
TATCACTTGTCGTAACACTTGGATGGGTTGA [3d1996]	0.773
TATCACTTGTCGTAACACTTTGATGGGTTGA [3d1997]	0.464
TATCACTTGTCGTAACACTTTGGAGGGTTGA [3d1999]	0.0382
TATCACTTGTCGTAACACTTTGGATGGGTTA [3d2001]	0.545
TATCACTTGTCGTAACACTTTGGATGGGTTG [3d2002]	0.806
TATCACTTGTCGTAACACTTTGGATGGGTTGA [2d222]	0.796
TATCACTTGTCGTAACACTTTGGATGGTTGA [3d2000]	0.0413
TATCACTTGTCGTAACACTTTGGTGGGTTGA [3d1998]	0.0145

Sequence	fraction ligated
TATCACTTGTCGTAACATTTGGATGGGTTGA [3d1995]	0.84
TATCACTTGTCGTAACCTTTGGATGGGTTGA [3d1994]	0.821
TATCACTTGTCGTAAGAACTGGATGGGTTGA [3d2159]	0.802
TATCACTTGTCGTAAGAACTTGATGGGTTGA [3d2160]	0.788
TATCACTTGTCGTAAGAACTTGGAGGGTTGA [3d2162]	0.0364
TATCACTTGTCGTAAGAACTTGGATGGGTTA [3d2164]	0.404
TATCACTTGTCGTAAGAACTTGGATGGGTTG [3d2165]	0.777
TATCACTTGTCGTAAGAACTTGGATGGGTTGA [2d255]	0.805
TATCACTTGTCGTAAGAACTTGGATGGTTGA [3d2163]	0.0536
TATCACTTGTCGTAAGAACTTGGTGGGTTGA [3d2161]	0.0804
TATCACTTGTCGTAAGAACTTTATGGGTTGA [3d2166]	0.067
TATCACTTGTCGTAAGAACTTTGAGGGTTGA [3d2168]	0.0393
TATCACTTGTCGTAAGAACTTTGATGGGTTA [3d2170]	0.09
TATCACTTGTCGTAAGAACTTTGATGGGTTG [3d2171]	0.726
TATCACTTGTCGTAAGAACTTTGATGGGTTGA [2d256]	0.79
TATCACTTGTCGTAAGAACTTTGATGGTTGA [3d2169]	0.0458
TATCACTTGTCGTAAGAACTTTGGAGGGTTA [3d2177]	0.075
TATCACTTGTCGTAAGAACTTTGGAGGGTTG [3d2178]	0.0318
TATCACTTGTCGTAAGAACTTTGGAGGGTTGA [2d258]	0.0583
TATCACTTGTCGTAAGAACTTTGGAGGTTGA [3d2176]	0.0186
TATCACTTGTCGTAAGAACTTTGGATGGGTT [3d2181]	0.219
TATCACTTGTCGTAAGAACTTTGGATGGGTTA [2d260]	0.799
TATCACTTGTCGTAAGAACTTTGGATGGGTTG [2d261]	0.81

Sequence	fraction ligated
TATCACTTGTCGTAAGAACTTTGGATGGTTA [3d2179]	0.11
TATCACTTGTCGTAAGAACTTTGGATGGTTG [3d2180]	0.0734
TATCACTTGTCGTAAGAACTTTGGATGGTTGA [2d259]	0.139
TATCACTTGTCGTAAGAACTTTGGGGGTTGA [3d2172]	0.0507
TATCACTTGTCGTAAGAACTTTGGTGGGTTA [3d2174]	0.0479
TATCACTTGTCGTAAGAACTTTGGTGGGTTG [3d2175]	0.0265
TATCACTTGTCGTAAGAACTTTGGTGGGTTGA [2d257]	0.123
TATCACTTGTCGTAAGAACTTTGGTGGTTGA [3d2173]	0.0396
TATCACTTGTCGTAAGAACTTTGTGGGTTGA [3d2167]	0.0101
TATCACTTGTCGTAAGAATTGGATGGGTTGA [3d2152]	0.785
TATCACTTGTCGTAAGAATTTGATGGGTTGA [3d2153]	0.757
TATCACTTGTCGTAAGAATTTGGAGGGTTGA [3d2155]	0.0724
TATCACTTGTCGTAAGAATTTGGATGGGTTA [3d2157]	0.765
TATCACTTGTCGTAAGAATTTGGATGGGTTG [3d2158]	0.798
TATCACTTGTCGTAAGAATTTGGATGGGTTGA [2d254]	0.8
TATCACTTGTCGTAAGAATTTGGATGGTTGA [3d2156]	0.208
TATCACTTGTCGTAAGAATTTGGTGGGTTGA [3d2154]	0.135
TATCACTTGTCGTAAGACACGGATGGGTTGA [3d2231]	0.231
TATCACTTGTCGTAAGACACTGATGGGTTGA [3d2232]	0.0313
TATCACTTGTCGTAAGACACTGGAGGGTTGA [3d2234]	0.00473
TATCACTTGTCGTAAGACACTGGATGGGTTA [3d2236]	0.751
TATCACTTGTCGTAAGACACTGGATGGGTTG [3d2237]	0.778
TATCACTTGTCGTAAGACACTGGATGGGTTGA [2d276]	0.776

Sequence	fraction ligated
TATCACTTGTCGTAAGACACTGGATGGTTGA [3d2235]	0.0538
TATCACTTGTCGTAAGACACTGGTGGGTTGA [3d2233]	0.00438
TATCACTTGTCGTAAGACACTTATGGGTTGA [3d2238]	0.0156
TATCACTTGTCGTAAGACACTTGAGGGTTGA [3d2240]	0.00563
TATCACTTGTCGTAAGACACTTGATGGGTTA [3d2242]	0.0227
TATCACTTGTCGTAAGACACTTGATGGGTTG [3d2243]	0.239
TATCACTTGTCGTAAGACACTTGATGGGTTGA [2d277]	0.662
TATCACTTGTCGTAAGACACTTGATGGTTGA [3d2241]	0.0196
TATCACTTGTCGTAAGACACTTGGAGGGTTA [3d2249]	0.0115
TATCACTTGTCGTAAGACACTTGGAGGGTTG [3d2250]	0.00522
TATCACTTGTCGTAAGACACTTGGAGGGTTGA [2d279]	0.0154
TATCACTTGTCGTAAGACACTTGGAGGTTGA [3d2248]	0.00668
TATCACTTGTCGTAAGACACTTGGATGGGTT [3d2253]	0.239
TATCACTTGTCGTAAGACACTTGGATGGGTTA [2d281]	0.756
TATCACTTGTCGTAAGACACTTGGATGGGTTG [2d282]	0.777
TATCACTTGTCGTAAGACACTTGGATGGTTA [3d2251]	0.0219
TATCACTTGTCGTAAGACACTTGGATGGTTG [3d2252]	0.036
TATCACTTGTCGTAAGACACTTGGATGGTTGA [2d280]	0.0762
TATCACTTGTCGTAAGACACTTGGGGGTTGA [3d2244]	0.0227
TATCACTTGTCGTAAGACACTTGGTGGGTTA [3d2246]	0.0114
TATCACTTGTCGTAAGACACTTGGTGGGTTG [3d2247]	0.0184
TATCACTTGTCGTAAGACACTTGGTGGGTTGA [2d278]	0.0691
TATCACTTGTCGTAAGACACTTGGTGGTTGA [3d2245]	0.012

Sequence	fraction ligated
TATCACTTGTCGTAAGACACTTGTGGGTTGA [3d2239]	0.00905
TATCACTTGTCGTAAGACACTTTAGGGTTGA [3d2256]	0.0176
TATCACTTGTCGTAAGACACTTTATGGGTTA [3d2258]	0.0282
TATCACTTGTCGTAAGACACTTTATGGGTTG [3d2259]	0.0149
TATCACTTGTCGTAAGACACTTTATGGGTTGA [2d283]	0.0284
TATCACTTGTCGTAAGACACTTTATGGTTGA [3d2257]	0.0255
TATCACTTGTCGTAAGACACTTTGAGGGTTA [3d2265]	0.0074
TATCACTTGTCGTAAGACACTTTGAGGGTTG [3d2266]	0.00798
TATCACTTGTCGTAAGACACTTTGAGGGTTGA [2d285]	0.00683
TATCACTTGTCGTAAGACACTTTGAGGTTGA [3d2264]	0.0133
TATCACTTGTCGTAAGACACTTTGATGGGTT [3d2269]	0.017
TATCACTTGTCGTAAGACACTTTGATGGGTTA [2d287]	0.167
TATCACTTGTCGTAAGACACTTTGATGGGTTG [2d288]	0.755
TATCACTTGTCGTAAGACACTTTGATGGTTA [3d2267]	0.00859
TATCACTTGTCGTAAGACACTTTGATGGTTG [3d2268]	0.0103
TATCACTTGTCGTAAGACACTTTGATGGTTGA [2d286]	0.0395
TATCACTTGTCGTAAGACACTTTGGAGGGTT [3d2279]	0.0132
TATCACTTGTCGTAAGACACTTTGGAGGGTTA [2d294]	0.0266
TATCACTTGTCGTAAGACACTTTGGAGGGTTG [2d295]	0.0513
